According to publication PMC10266124 (mAbs, 2023):

B1: mAb01 (bamlanivimab) (antibody, V domains shown)
VH: QVQLVQSGAEVKKPGSSVKVSCKASGGTFSNYAISWVRQAPGQGLEWMGRIIPILGIANYAQKFQGRVTITADKSTSTAYMELSSLRSEDTAVYYCARGYYEARHYYYYYAMDVWGQGTAVTVSS
VL: not shown
B2: mAb10 (52) (antibody, V domains shown)
VH: QVQLVQSGAEVKKPGSSVKVSCKASGYTFTSYGISWVRQAPGQGLEWMGGIIPMFGTTNYAQKFQGRVTITADKSTSTAYMELSSLRSEDTAVYYCARDRGDTIDYWGQGTLVTVSS
VL: DIQMTQSPSSLSASVGDRVTITCRASQGISNNLNWYQQKPGKAPKLLIYAASSLESGVPSRFSGSGSGTDFTLTISSLQPEDFATYYCQQGNGFPLTFGPGTKVDIK
B3: mAb11 (298) (antibody, V domains shown)
VH: QVQLVQSGAEVKKPGASVKVSCKASGGTFSTYGISWVRQAPGQGLEWMGWISPNSGGTDLAQKFQGRVTMTRDTSTSTVYMELSSLRSEDTAVYYCASDPRDDIAGGYWGQGTLVTVSS
VL: not shown
B4: mAb14 (C002) (antibody, V domains shown)
VH: EVQLVESGGGVVQPGRSLRLSCAASGFTFSIYGMHWVRQAPGKGLEWVAVISYDGSNKYYADSVKGRFTISRDNSKNTLYLQMNSLRAEDTAVYYCAKEGRPSDIVVVVAFDYWGQGTLVTVSS
VL: not shown
B5: mAb15 (C119) (antibody, V domains shown)
VH: QVQLVQSGAEVKKPGASVKVSCKASGYTFTSYYMHWVRQAPGQGLEWMGIINPSGGSTSYAQKLQGRVTMTRDTSTSTVYMELSSLRSEDTAVYYCARANHETTMDTYYYYYYMDVWGKGTTVTVSS
VL: QSALTQPASVSGSPGQSITISCTGTSSDVGGYKYVSWYQRHPGKAPKLMIYDVSNRPSGVSNRFSGSKSGNTASLTISGLQAEDEADYYCSSYTSSSTSVVFGGGTQLTVL
B6: mAb16 (C121) (antibody, V domains shown)
VH: not shown
VL: QSALTQPASVSGSPGQSITISCTGTSSDVGSYNLVSWYQQHPGKAPKLMIYEGSKRPSGVSNRFSGSKSGNTASLTISGLQAEDEADYYCCSYAGSSTLVFGGGTKLTVL
B7: mAb18 (CV07-250) (antibody, V domains shown)
VH: QVQLVQSEAEVKEPGASVEVSCKASGYNFTNFAISWVRQAPGQGLEWMGWISGYNGDTNSAQKFLGRVTMTTDTSTTTAYMELRSLRSDDTAVYYCAGSDNYGFPYNGMDVWGQGTTVTVFN
VL: QSALTQPPSASGSPGQSVTISCTGTSSDLGAYHFVTWYQHYPGKAPKVMIYGVRKRPSGVPDRFSGSKSGNTASLTVSGLQDEDEADYYCSSYAGNNDFVFGGGTKLTVL
B8: mAb19 (CV07-270) (antibody, V domains shown)
VH: QVQLVESGGGLVKPGGSLRLSCAASGFTFSDYYMTWIRQAPGKGLEWVSYISSSGSTIYYADSVKGRFTISRDNAKNSLYLQMNSLRAEDTAVYYCARARGSSGWYRIGTRWGNWFDPWGQGTLVTVSS
VL: QSALTQPASVSGSPGQSITISCTGTSSDVGGYNYVSWYQQHPGKAPKLMIYEVSNRPSGVSNRFSGSKSGNTASLTISGLQAEDEADYYCSSYTSSSNVVFGGGTMLTVL
B9: mAb02 (casirivimab) (antibody, V domains shown)
VH: QVQLVESGGGLVKPGGSLRLSCAASGFTFSDYYMSWIRQAPGKGLEWVSYITYSGSTIYYADSVKGRFTISRDNAKSSLYLQMNSLRAEDTAVYYCARDRGTTMVPFDYWGQGTLVTVSS
VL: DIQMTQSPSSLSASVGDRVTITCQASQDITNYLNWYQQKPGKAPKLLIYAASNLETGVPSRFSGSGSGTDFTFTISGLQPEDIATYYCQQYDNLPLTFGGGTKVEIK
B10: mAb21 (S2A4) (antibody, V domains shown)
VH: EVQLVESGGGLVQPGGSLRLSCAASGFTFSSYWMNWVRQAPGKGLEWVANIKQDGSEKYYVDSVKGRFTISRDNAKNSLFLQMNSLRAEDTAVYYCARVWWLRGSFDYWGQGTLVTVSS
VL: NFMLTQPHSVSESPGKTVTISCTGSSGSIASNYVQWYQQRPGSAPTTVIYEDNQRPSGVPDRFSGSIDSSSNSASLTISGLKTEDEADYYCQSYDSSNHVVFGGGTKLTVL
B11: mAb22 (S304) (antibody, V domains shown)
VH: VQLVESGGGLVQPGGSLRLSCAASGFTFSSYDMHWVRQTTGKGLEWVSTIGTAGDTYYPDSVKGRFTISREDAKNSLYLQMNSLRAGDTAVYYCARGDSSGYYYYFDYWGQGTLLTVSS
VL: DIEMTQSPSSLSAAVGDRVTITCRASQSIGSYLNWYQQKPGKAPKLLIYAASSLQSGVPSRFSGSGSGTDFTLTISSLQPEDFAIYYCQQSYVSPTYTFGPGTKVDIK
B12: mAb23 (COVA1-16) (antibody, V domains shown)
VH: QVQLVQSGAEVKKPGASVKVSCKASGYTFTSYYMHWVRQAPGQGLEWMGIINSSGGSTSYAQKFQGRVTMTRDTSTSTVYMELSSLRSEDTAVYYCARPPRNYYDRSGYYQRAEYFQHWGQGTLVTVSS
VL: DIQLTQSPSSLSASVGDRVTITCQASQDISNYLNWYQQRPGKAPKLLIYDASNLETGVPSRFSGSGSGTDFTFTISSLQPEDIATYYCQQYDNPPLTFGGGTKLEIK
B13: mAb24 (S2E12) (antibody, V domains shown)
VH: not shown
VL: DIVLTQTPGTLSLSPGERATLSCRASQSVSSSYLAWYQQKPGQAPRLLIYGASSRATGIPDRFSGSGSGTDFTLTISRLEPEDFAVYYCQQYVGLTGWTFGQGTKVEIK
B14: mAb25 (S2M11) (antibody, V domains shown)
VH: EVQLVQSGAEVKKPGASVKVSCKASGYTFTGYYMHWVRQAPGQGLEWMGWINPISSGTSYAQTFQGRVTMTSDTSITTAYMELSRLRSDDTAVYYCARAAPFYDFWSGYSYFDYWGQGTLVTVSS
VL: not shown
B15: mAb26 (4A8) (antibody, V domains shown)
VH: EVQLVESGAEVKKPGASVKVSCKVSGYTLTELSMHWVRQAPGKGLEWMGGFDPEDGETMYAQKFQGRVTMTEDTSTDTAYMELSSLRSEDTAVYYCATSTAVAGTPDLFDYYYGMDVWGQGTTVTVSS
VL: EIVMTQSPLSSPVTLGQPASISCRSSQSLVHSDGNTYLSWLQQRPGQPPRLLIYKISNRFSGVPDRFSGSGAGTDFTLKISRVEAEDVGVYYCTQATQFPYTFGQGTKVDIK
B16: mAb27 (H014) (antibody, V domains shown)
VH: EVQLVQSGAEVKKPGATVKISCKVSGYSFSNYYIHWVKQAPGKSLEWIGYIDPFNGGTSDNLKFKGAATLTADTSTDTAYMELSSLRSEDTAVYYCARSEYDPYYVMDYWGQGTTVTVSS
VL: IVLTQSPFQSVSPKEKVTITCRASQSISSNLHWYQQKPDQSPKLLIKYASQSISGIPSRFSGSGSGTDFTLTINSLEAEDFGIYFCQQTNFWPYIFGQGTKLEIL
B17: mAb29 (regdanvimab) (antibody, V domains shown)
VH: QITLKESGPTLVKPTQTLTLTCSFSGFSLSTSGVGVGWIRQPPGKALEWLALIDWDDNKYHTTSLKTRLTISKDTSKNQVVLTMTNMDPVDTATYYCARIPGFLRYRNRYYYYGMDVWGQGTTVTVSS
VL: ELVLTQPPSVSAAPGQKVTISCSGSSSNIGNNYVSWYQQLPGTAPKLLIYDNNKRPSGIPDRFSGSKSGTSATLGITGLQTGDEADYYCGTWDSSLSAGVFGGGTELTVL
B18: mAb03 (imdevimab) (antibody, V domains shown)
VH: QVQLVESGGGVVQPGRSLRLSCAASGFTFSNYAMYWVRQAPGKGLEWVAVISYDGSNKYYADSVKGRFTISRDNSKNTLYLQMNSLRTEDTAVYYCASGSDYGDYLLVYWGQGTLVTVSS
VL: QSALTQPASVSGSPGQSITISCTGTSSDVGGYNYVSWYQQHPGKAPKLMIYDVSKRPSGVSNRFSGSKSGNTASLTISGLQSEDEADYYCNSLTSISTWVFGGGTKLTVL
B19: mAb08 (B38) (antibody, V domains shown)
VH: EVQLVESGGGLVQPGGSLRLSCAASGFIVSSNYMSWVRQAPGKGLEWVSVIYSGGSTYYADSVKGRFTISRHNSKNTLYLQMNSLRAEDTAVYYCAREAYGMDVWGQGTTVTVSS
VL: DIVMTQSPSFLSASVGDRVTITCRASQGISSYLAWYQQKPGKAPKLLIYAASTLQSGVPSRFSGSGSGTEFTLTISSLQPEDFATYYCQQLNSYPPYTFGQGTKLEIK
B20: mAb09 (etesevimab) (antibody, V domains shown)
VH: EVQLVESGGGLVQPGGSLRLSCAASGFTVSSNYMSWVRQAPGKGLEWVSVIYSGGSTFYADSVKGRFTISRDNSMNTLFLQMNSLRAEDTAVYYCARVLPMYGDYLDYWGQGTLVTVSS
VL: not shown

target: Biotinylated SARS-CoV-2 spike S1 protein (SARS-CoV-2, Wuhan, UniProt P0DTC2, biotin (biotinylated)); test: SPR

**Q.** Does B1 bind?
**A.** Result: binds

**Q.** Does B2 bind?
**A.** Result: binds

**Q.** Does B3 bind?
**A.** Result: binds

**Q.** Does B4 bind?
**A.** Result: binds

**Q.** Does B5 bind?
**A.** Result: binds

**Q.** Does B6 bind?
**A.** Result: binds

**Q.** Does B7 bind?
**A.** Result: binds

**Q.** Does B8 bind?
**A.** Result: binds

**Q.** Does B9 bind?
**A.** Result: binds

**Q.** Does B10 bind?
**A.** Result: binds

**Q.** Does B11 bind?
**A.** Result: binds

**Q.** Does B12 bind?
**A.** Result: binds

**Q.** Does B13 bind?
**A.** Result: binds

**Q.** Does B14 bind?
**A.** Result: binds

**Q.** Does B15 bind?
**A.** Result: binds

**Q.** Does B16 bind?
**A.** Result: binds

**Q.** Does B17 bind?
**A.** Result: binds

**Q.** Does B18 bind?
**A.** Result: binds

**Q.** Does B19 bind?
**A.** Result: binds

**Q.** Does B20 bind?
**A.** Result: binds
